In PMC2911289:

Assays:
[1] = biological target: VEGF-B(10–108) (fusion protein) with thioredoxin, His tag and S tag (human); assay: SDS-PAGE and Western blot
[2] = biological target: VEGF-B(10–108), minimal receptor-binding domain of vascular endothelial growth factor-B (untagged dimer) (human); assay: crystal structure

VEGF-B(10–108) (fusion protein) with thioredoxin, His tag and S tag (domain or fragment)
stoichiometry N [1]: 2

VEGF-B(10–108), minimal receptor-binding domain of vascular endothelial growth factor-B (untagged dimer) (domain or fragment)
stoichiometry N [2]: 2
